Biological target: the molecule itself
Assay: self-assembly of CT-B subunits, pH shift, SDS-PAGE and Western blot

B1: native CT-B protein (other)
chain: TPQNITDLCAEYHNTQIYTLNDKIFSYTESLAGKREMAIITFKNGAIFQVEVPGSQHIDSQKKAIERMKDTLRIAYLTEAKVEKLCVWNNKTPHAIAAISMAN
binding result: binds

From patent publication US12030920 (IN3BIO, dated 2024)
